This test concerns the target A1 domain of von Willebrandt factor (vWf), His-tagged A1 antigen (human) (UniProt P04275). As to the kind of experiment: flow cytometry, yeast-displayed scFv with His-tagged A1 and Alexa-488 anti-His tag. On the technique in general: A flow cytometer gives signals particle by particle.

Substance “scFv of the murine NMC-4 antibody, displayed on yeast (pYD-NMC4-scFv in EBY100) (from UniProt P32781 19-87)” gave a percent of cells positive for A1 binding of 50 to 70%.

These data come from US20080003617A1.
